Experimental data taken from patent US20240101645A1 (HENRY M JACKSON FOUNDATION FOR THE ADVANCEMENT OF MILITARY …, published 2024).

T1: MERS-CoV spike antigens (bead panel) (MERS-CoV, UniProt K9N5Q8 18-1296)
T1 sequence: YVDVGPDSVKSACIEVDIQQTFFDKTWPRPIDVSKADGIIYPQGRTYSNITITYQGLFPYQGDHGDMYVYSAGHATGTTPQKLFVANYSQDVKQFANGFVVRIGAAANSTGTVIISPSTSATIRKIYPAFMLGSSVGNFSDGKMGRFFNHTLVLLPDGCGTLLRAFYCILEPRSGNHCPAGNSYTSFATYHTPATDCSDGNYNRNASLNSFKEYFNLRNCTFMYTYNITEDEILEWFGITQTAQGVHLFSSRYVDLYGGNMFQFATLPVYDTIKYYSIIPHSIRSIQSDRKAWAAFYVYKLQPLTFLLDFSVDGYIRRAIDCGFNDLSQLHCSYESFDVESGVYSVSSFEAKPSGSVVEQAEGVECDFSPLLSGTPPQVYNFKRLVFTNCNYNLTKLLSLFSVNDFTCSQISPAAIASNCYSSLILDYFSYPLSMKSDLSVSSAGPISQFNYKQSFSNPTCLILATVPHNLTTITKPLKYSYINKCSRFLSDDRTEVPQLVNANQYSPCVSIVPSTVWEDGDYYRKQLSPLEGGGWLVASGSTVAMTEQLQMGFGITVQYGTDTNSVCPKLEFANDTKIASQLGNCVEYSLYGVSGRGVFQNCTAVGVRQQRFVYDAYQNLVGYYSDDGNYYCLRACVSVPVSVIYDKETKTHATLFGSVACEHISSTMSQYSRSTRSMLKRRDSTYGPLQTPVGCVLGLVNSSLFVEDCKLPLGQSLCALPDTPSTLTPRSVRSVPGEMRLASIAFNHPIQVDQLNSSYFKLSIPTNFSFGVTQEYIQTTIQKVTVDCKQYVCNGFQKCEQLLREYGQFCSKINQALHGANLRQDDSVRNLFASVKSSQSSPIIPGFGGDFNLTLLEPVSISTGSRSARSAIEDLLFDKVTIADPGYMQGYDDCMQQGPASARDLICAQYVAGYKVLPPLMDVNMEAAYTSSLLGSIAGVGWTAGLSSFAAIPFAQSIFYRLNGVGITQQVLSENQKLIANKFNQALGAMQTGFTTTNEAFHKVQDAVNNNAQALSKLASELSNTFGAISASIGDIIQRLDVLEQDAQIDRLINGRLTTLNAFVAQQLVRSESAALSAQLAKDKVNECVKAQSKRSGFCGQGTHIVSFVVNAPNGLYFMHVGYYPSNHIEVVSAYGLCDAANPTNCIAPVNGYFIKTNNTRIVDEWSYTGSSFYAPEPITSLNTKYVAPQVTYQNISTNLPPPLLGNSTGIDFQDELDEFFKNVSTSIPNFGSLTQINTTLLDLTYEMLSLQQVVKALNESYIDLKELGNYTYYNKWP

B1: COV_2039 (antibody, V domains shown)
VH: QVQLVQSGAEVKKPGASVKVSCKVSGYMLIELSMHWVRQAPGKGLEWMGGFDPEDAETIYAQEFQGRVTMTEDTSTDTAYMELSSLRSEDTAVYYCTTGPAVTNRPADYWGPGTLVTVSS
VL: QSVLTQPPSVSGAPGQRVTISCTGSSSNIGASYDVHWYQQLPGTAPKLLIYANSNRPSGVPDRFSGSKSGTSASLAITGLQAEDEADYYCQSYDSSLSYSVVFGGGTKLTVL
notes: human IgG1
B2: COV_2025 (antibody, V domains shown)
VH: QVHLVQSGAEVKKPGASVKVSCKVSGYTLVELSVHWVRQAPAKGLEWIGGFDPEDGETIYAQKFQGRVTMTEDTSTDTAYMELTNLRSEDTAVYYCVTSQPFVSPNWFDPWGQGTLVTVSS
VL: QSALTQPASVSGSPGQSITISCTGTSRDVGAYNYVSWYQQHPGKAPKLMIYEVTTRPSGVSNRFSGSKSGNTASLTISGLQAEDEADYYCSSYTGSRTLVFGTGTKVTVL
notes: human IgG1
B3: COV_2137 (antibody, V domains shown)
VH: EVQLVESGGGLVKPGGSLRLSCAASGFTFSSYTMNWVRQAPGKGLEWVSSISSGSSFIYYADSLRGRFTISRDNAKNSLYLQMNSLRAEDTAVYYCARAPEPQSVIYAYWYFDLWGRGTLVTVSS
VL: QSALTQPASVSGSPGQSITFSCTGTSSDVGSYNLVSWYQQYPGKAPKLMIYEVNKRPSGVSNRFSGSKSGNTASLTISGLQAEDEADYYCCSYAGSSTFYVFGTGTKVTVLG
notes: human IgG1

Tests used:
[1] = target: T2, SARS-CoV-2 S on pseudovirions (Wuhan Hu-1 / IL1/2020, last 18 amino acids removed) (SARS-CoV-2, UniProt P0DTC2 14-1273); test: cell-based or functional assay
SARS-CoV-2 NTD (1-290) [2] = target: T3, SARS-CoV-2 NTD (1-290) (SARS-CoV-2, UniProt P0DTC2 14-290); test: BLI, 1:1 model
T3 construct: range 1-290

[3] = target: T2, SARS-CoV-2 S on pseudovirions (Wuhan …); test: cell-based or functional assay; remark: listed apart in the source
[4] = target: T1, MERS-CoV spike antigens (bead panel); test: multiplex bead assay
SARS-CoV-2 NTD (1-290) [5] = target: T3, SARS-CoV-2 NTD (1-290); test: multiplex bead assay

Row | Binder | Mean IC50, pSV neutralization [1] [µg/ml] | Mean IC80, pSV neutralization [1] [µg/ml] | Kd (SARS-CoV-2 NTD (1-290) [2]) [pM] | IC50, pseudotyped neutralization assay [3] [ng/mL] | binding result [4] | binding result (SARS-CoV-2 NTD (1-290) [5])
1 | B1 | 0.01 | 1.8 | < 1 | 6 |  | 
2 | B2 | 0.02 | 0.49 | < 1 | 9 |  | 
3 | B3 |  |  |  |  | no binding | binds
